# In patent US20240116985A1, “STAPLED PEPTIDES AND METHODS THEREOF” (priority 2020, published 2024):
# Starred links: 1 amine or outer side, 2 acyl side, 3 side chain; linkers in the order of their positions; H or OH if unused. Positions of bridges follow the written chain, without caps; N, C: chain ends. Non-standard residues stand in square brackets, D forms with d. Primed or numbered codes have the meaning given here. PyrS2(3) = (S)-3-amino-1-((pent-4-en-1-yloxy)carbonyl)pyrrolidine-3-carboxylic acid, stapling residue, C=CCCCOC(=O)N1CC[C@@](N[*:1])(C(=O)[*:2])C1; PyrS2″ = (S)-3-amino-1-((pent-4-en-1-yloxy)carbonyl)pyrrolidine-3-carboxylic acid (stapling residue), C=CCCCOC(=O)N1CC[C@@](N[*:1])(C(=O)[*:2])C1; B5(4) = 2,2-bis(4-pentenyl)glycine = 2-amino-2-(pent-4-en-1-yl)hept-6-enoic acid (stitching residue), C=CCCCC(CCCC=C)(N[*:1])C(=O)[*:2]; B5(5) = 2,2-bis(4-pentenyl)glycine, 2-amino-2-(pent-4-en-1-yl)hept-6-enoic acid (stitching residue), C=CCCCC(CCCC=C)(N[*:1])C(=O)[*:2]; B5(21) = 2-amino-2-(pent-4-en-1-yl)hept-6-enoic acid, bis(4-pentenyl)glycine (stitching residue), C=CCCCC(CCCC=C)(N[*:1])C(=O)[*:2]; PyrS2 = (S)-3-amino-1-((pent-4-en-1-yloxy)carbonyl)pyrrolidine-3-carboxylic acid, C=CCCCOC(=O)N1CC[C@@](N[*:1])(C(=O)[*:2])C1; B5(12) = 2-amino-2-(pent-4-en-1-yl)hept-6-enoic acid (two olefin side chains), C=CCCCC(CCCC=C)(N[*:1])C(=O)[*:2]; 4TriA = (S)-2-amino-3-(1H-1,2,3-triazol-4-yl)propanoic acid, O=C([C@H](Cc1c[nH]nn1)N[*:1])[*:2]; B5(3) = 2,2-bis(4-pentenyl)glycine (stitching residue), C=CCCCC(CCCC=C)(N[*:1])C(=O)[*:2]; B5″ = 2,2-bis(4-pentenyl)glycine, stitching residue, C=CCCCC(CCCC=C)(N[*:1])C(=O)[*:2]; B5 = 2-amino-2-(pent-4-en-1-yl)hept-6-enoic acid, C=CCCCC(CCCC=C)(N[*:1])C(=O)[*:2]; Phe(3-COOH) = N[C@@H](Cc1cccc(C(=O)O)c1)C(=O)O; Phe(2-CF3) = N[C@@H](Cc1ccccc1C(F)(F)F)C(=O)O; Ala(4-thiazolyl) = N[C@@H](Cc1cscn1)C(=O)O; Phe(2-Cl) = N[C@@H](Cc1ccccc1Cl)C(=O)O; Bta = N[C@@H](Cc1csc2ccccc12)C(=O)O; αAllylPro = C=CC[C@@]1(C(=O)O)CCCN1; tBuAla = CC(C)(C)C[C@H](N)C(=O)O; Gly(cBu) = N[C@H](C(=O)O)C1CCC1; 3Thi = N[C@@H](Cc1ccsc1)C(=O)O; S8 = C=CCCCCCC[C@](C)(N)C(=O)O; R5 = C=CCCC[C@@](C)(N)C(=O)O; hSer = N[C@@H](CCO)C(=O)O; Nle = CCCC[C@H](N)C(=O)O; Ac5c = NC1(C(=O)O)CCCC1; Aib = CC(C)(N)C(=O)O
# Tests used:
# [1] = molecular target: full-length beta-Catenin (Uniprot ID P35222) (Homo sapiens (Human)) (UniProt P35222); assay: fluorescence polarization competition; full-length beta-catenin; competitor 5FAM-TCF4(10-53) probe
# Target sequence in this assay (P35222 whole entry, one chain of several): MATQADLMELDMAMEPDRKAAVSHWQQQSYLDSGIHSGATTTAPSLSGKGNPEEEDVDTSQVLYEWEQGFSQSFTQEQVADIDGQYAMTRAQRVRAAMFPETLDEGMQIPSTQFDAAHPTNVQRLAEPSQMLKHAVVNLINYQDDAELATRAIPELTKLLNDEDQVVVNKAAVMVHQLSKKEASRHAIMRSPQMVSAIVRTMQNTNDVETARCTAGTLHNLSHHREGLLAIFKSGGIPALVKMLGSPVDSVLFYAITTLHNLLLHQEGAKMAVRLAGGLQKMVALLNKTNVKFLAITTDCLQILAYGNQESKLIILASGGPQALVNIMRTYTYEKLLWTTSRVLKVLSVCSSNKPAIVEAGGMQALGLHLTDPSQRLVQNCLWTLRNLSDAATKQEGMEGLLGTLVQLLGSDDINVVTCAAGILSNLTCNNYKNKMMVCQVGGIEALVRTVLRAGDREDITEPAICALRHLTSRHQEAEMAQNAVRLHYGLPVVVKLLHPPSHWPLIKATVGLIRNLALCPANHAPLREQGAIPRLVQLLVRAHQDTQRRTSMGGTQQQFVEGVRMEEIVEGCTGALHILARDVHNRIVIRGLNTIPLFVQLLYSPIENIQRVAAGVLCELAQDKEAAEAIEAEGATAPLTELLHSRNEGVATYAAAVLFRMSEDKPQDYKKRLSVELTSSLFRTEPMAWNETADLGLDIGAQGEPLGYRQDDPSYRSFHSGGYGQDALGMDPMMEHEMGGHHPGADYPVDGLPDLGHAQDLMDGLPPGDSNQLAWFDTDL
# [2] = molecular target: full-length beta-Catenin (Uniprot ID P35222) (Homo sapiens (Human)) (UniProt P35222); assay: fluorescence polarization competition, displacement of 5FAM-TCF4 10-53 from full-length beta-catenin
# Target sequence in this assay (P35222 2-781 limits assumed): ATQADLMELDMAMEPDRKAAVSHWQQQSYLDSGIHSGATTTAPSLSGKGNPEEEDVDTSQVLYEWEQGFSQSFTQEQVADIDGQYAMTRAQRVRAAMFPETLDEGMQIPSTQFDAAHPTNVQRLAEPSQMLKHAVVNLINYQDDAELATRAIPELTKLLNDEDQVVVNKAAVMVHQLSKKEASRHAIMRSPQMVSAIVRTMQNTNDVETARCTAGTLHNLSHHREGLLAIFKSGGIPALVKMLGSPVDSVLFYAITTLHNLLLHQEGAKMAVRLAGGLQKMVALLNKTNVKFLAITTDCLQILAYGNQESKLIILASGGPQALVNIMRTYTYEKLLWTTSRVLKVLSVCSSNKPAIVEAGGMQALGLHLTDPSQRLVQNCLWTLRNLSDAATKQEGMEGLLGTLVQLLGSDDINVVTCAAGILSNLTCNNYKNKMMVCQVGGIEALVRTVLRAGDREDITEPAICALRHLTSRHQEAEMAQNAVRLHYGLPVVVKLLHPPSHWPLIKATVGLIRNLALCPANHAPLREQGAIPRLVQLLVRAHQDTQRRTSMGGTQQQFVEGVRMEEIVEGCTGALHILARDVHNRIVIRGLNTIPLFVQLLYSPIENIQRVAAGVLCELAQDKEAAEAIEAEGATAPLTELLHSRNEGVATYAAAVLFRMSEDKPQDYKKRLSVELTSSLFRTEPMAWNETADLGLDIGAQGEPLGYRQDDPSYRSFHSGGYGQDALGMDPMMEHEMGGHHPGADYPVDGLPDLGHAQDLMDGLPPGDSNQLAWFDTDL
# [3] = molecular target: full-length beta-Catenin (Uniprot ID P35222) (Homo sapiens (Human)) (UniProt P35222); assay: fluorescence polarization competition; full-length beta-catenin, competitor 5FAM-TCF4(10-53)
# Target sequence in this assay (P35222 2-781 limits assumed): as above
# [4] = molecular target: full-length beta-Catenin (Uniprot ID P35222) (Homo sapiens (Human)) (UniProt P35222); assay: cell-based or functional assay
# Target sequence in this assay (P35222 2-781 limits assumed): as above
# [5] = molecular target: Bcat-Halo (UniProt P35222); assay: NanoBRET Abs IC50, HEK293 cells; Bcat-Halo / TCF4-Luc engagement
# [6] = molecular target: beta-catenin (Homo sapiens (Human)) (UniProt P35222); assay: fluorescence polarization competition; full-length beta-catenin with 5FAM-TCF4(10-53) probe as competitor
# [7] = molecular target: full-length beta-Catenin (Uniprot ID P35222) (Homo sapiens (Human)) (UniProt P35222); assay: fluorescence polarization competition; 5FAM-TCF4(10-53) probe displaced from full-length beta-catenin
# Target sequence in this assay (P35222 2-781 limits assumed): as above
# [8] = molecular target: full-length beta-Catenin (Uniprot ID P35222) (Homo sapiens (Human)) (UniProt P35222); assay: fluorescence polarization competition; 10 nM full-length beta-catenin with 10 nM 5FAM-TCF4(10-53) probe as competitor
# Target sequence in this assay (P35222 2-781 limits assumed): as above
# [9] = molecular target: full-length beta-Catenin (Uniprot ID P35222) (Homo sapiens (Human)) (UniProt P35222); assay: fluorescence polarization competition, peptide titrated against full-length beta-catenin + 5FAM-TCF4(10-53)
# Target sequence in this assay (P35222 2-781 limits assumed): as above
# Sequence of Bcat-Halo (P35222 whole entry): as the sequence (P35222 whole entry, one chain of several) above
# Sequence of beta-catenin (Homo sapiens (Human)) (P35222 whole entry): as the sequence (P35222 whole entry, one chain of several) above
binder,measurement,setting,value
"Ac-[αAllylPro]D[tBuAla][B5(21)]DD[Aib][Aib]FL[PyrS2″][3Thi][Bta]Q-NH2 (staple 1-4, 4-11; also: later eluting HPLC peak (staple isomer composition)) [I-1180]",EC50,[1],87 nM
same,IC50,[2],87 nM
"Ac-[αAllylPro]D[tBuAla][B5(4)]DDAAFL[S8][Phe(2-Cl)][Bta]S-NH2 (staple 1-4, 4-11) [I-1189]",EC50,[1],94.5 nM
same,IC50,[2],94.5 nM
Ac-PD[tBuAla][R5]DDAAFL[PyrS2(3)][3Thi][Bta]Q-NH2 (staple 4-11) [I-1181],EC50,[1],226 nM
same,IC50,[2],297 nM
"Ac-[αAllylPro]D[tBuAla][B5(5)]D[Phe(3-COOH)]AAFL[PyrS2″][Phe(2-CF3)][Bta]QL[Aib]-NH2 (staple 1-4, 4-11) [I-2386]",IC50,[3],75.5 nM
same,DLD1 4% Abs IC50,[4],700 nM
same,IC50,[5],2800 nM
"Ac-[αAllylPro]DS[B5(21)]DDAAFL[PyrS2″][3Thi][Bta]L-NH2 (staple 1-4, 4-11) [I-1414]",EC50,[6],84 nM
same,IC50,[7],84 nM
"Ac-[αAllylPro]D[tBuAla][B5(5)]D[Phe(3-COOH)]AAFL[PyrS2][Phe(2-CF3)][Bta]QLN-NH2 (staple 1-4, 4-11) [I-2390]",IC50,[3],22 nM
same,DLD1 4% Abs IC50,[4],1400 nM
same,IC50,[5],9100 nM
"Ac-[αAllylPro]D[tBuAla][B5(5)]D[Phe(3-COOH)]AAFL[PyrS2″][Phe(2-CF3)][Bta]QL[Ac5c]-NH2 (staple 1-4, 4-11) [I-2387]",IC50,[3],120 nM
same,DLD1 4% Abs IC50,[4],1500 nM
same,IC50,[5],7100 nM
"Ac-[αAllylPro]D[tBuAla][B5(4)]DDAAFL[S8][3Thi][Bta]T-NH2 (staple 1-4, 4-11) [I-1191]",EC50,[1],38.5 nM
same,IC50,[2],38.5 nM
"Ac-[αAllylPro]D[tBuAla][B5]DDAAFN[PyrS2″][3Thi][Bta][dH]-NH2 (staple 1-4, 4-11) [I-813]",IC50,[8],7 nM
same,EC50,[9],7 nM
"Ac-[αAllylPro]D[tBuAla][B5(4)]DDAAFT[PyrS2″][3Thi][Bta]H-NH2 (staple 1-4, 4-11) [I-810]",IC50,[8],6 nM
same,EC50,[9],6 nM
"Ac-[αAllylPro]D[tBuAla][B5(5)]DDAAFL[PyrS2″][Phe(2-Cl)][Bta]L-NH2 (staple 1-4, 4-11; also: staple isomer, earlier eluting HPLC peak) [I-1416]",EC50,[6],57 nM
same,IC50,[7],57 nM
"Ac-[αAllylPro]D[tBuAla][B5]DDAAFN[PyrS2″][3Thi][Bta]S-NH2 (staple 1-4, 4-11) [I-815]",IC50,[8],5 nM
same,EC50,[9],5 nM
"Ac-[αAllylPro]D[tBuAla][B5]DDAAFN[PyrS2″][3Thi][Bta]T-NH2 (staple 1-4, 4-11) [I-814]",IC50,[8],7 nM
same,EC50,[9],7 nM
"Ac-[αAllylPro]D[tBuAla][B5″]DDAAFL[S8][3Thi][Bta]H-NH2 (staple 1-4, 4-11) [I-1195]",EC50,[1],29.5 nM
same,IC50,[2],29.5 nM
Ac-PD[tBuAla][R5]DDAAFN[PyrS2″][3Thi][Bta]Q-NH2 (staple 4-11) [I-1182],EC50,[1],144 nM
same,IC50,[2],144 nM
"Ac-[αAllylPro]D[tBuAla][B5(4)]DDAAFL[S8][3Thi][Bta][4TriA]-NH2 (staple 1-4, 4-11) [I-1193]",EC50,[1],78.5 nM
same,IC50,[2],78.5 nM
"Ac-[αAllylPro]D[Nle][B5(5)]DDAAFL[PyrS2″][Phe(2-Cl)][Bta]L-NH2 (staple 1-4, 4-11; also: staple isomer, earlier eluting HPLC peak) [I-1420]",EC50,[6],124 nM
same,IC50,[7],124 nM
"Ac-[αAllylPro]D[tBuAla][B5(4)]DDAAFL[S8][Phe(2-Cl)][Bta][hSer]-NH2 (staple 1-4, 4-11) [I-1196]",EC50,[1],85 nM
same,IC50,[2],85 nM
"Ac-[αAllylPro]D[tBuAla][B5(5)]DDAAFL[PyrS2″][Phe(2-Cl)][Bta]L-NH2 (staple 1-4, 4-11) [I-1417]",EC50,[6],198 nM
same,IC50,[7],198 nM
"Ac-[αAllylPro]DT[B5(5)]DDAAFL[PyrS2″][3Thi][Bta]L-NH2 (staple 1-4, 4-11) [I-1415]",EC50,[6],72 nM
same,IC50,[7],72 nM
"Ac-[αAllylPro]D[tBuAla][B5(4)]DDAAFF[PyrS2″][3Thi][Bta]H-NH2 (staple 1-4, 4-11) [I-808]",IC50,[8],5 nM
same,EC50,[9],5 nM
"Ac-[αAllylPro]D[tBuAla][B5(5)]D[Phe(3-COOH)]AAFL[PyrS2″][Phe(2-CF3)][Bta]QL[Gly(cBu)]-NH2 (staple 1-4, 4-11) [I-2388]",IC50,[3],133 nM
same,DLD1 4% Abs IC50,[4],1200 nM
same,IC50,[5],5700 nM
"Ac-[αAllylPro]D[Nle][B5(5)]DDAAFL[PyrS2″][Phe(2-Cl)][Bta]L-NH2 (staple 1-4, 4-11; also: staple isomer of later HPLC peak) [I-1421]",EC50,[6],134 nM
same,IC50,[7],134 nM
"Ac-[αAllylPro]D[tBuAla][B5]DDAAFN[PyrS2″][3Thi][Bta]N-NH2 (staple 1-4, 4-11) [I-816]",IC50,[8],5 nM
same,EC50,[9],5 nM
"Ac-[αAllylPro]D[tBuAla][B5(3)]DDAAFT[PyrS2″][3Thi][Bta]Q-NH2 (staple 1-4, 4-11) [I-809]",IC50,[8],5 nM
same,EC50,[9],5 nM
"Ac-[αAllylPro]D[tBuAla][B5(4)]DDAAFL[S8][Phe(2-Cl)][Bta][4TriA]-NH2 (staple 1-4, 4-11) [I-1192]",EC50,[1],81.5 nM
same,IC50,[2],81.5 nM
"Ac-[αAllylPro]D[tBuAla][B5(4)]DDAAFL[S8][Phe(2-Cl)][Bta]H-NH2 (staple 1-4, 4-11) [I-1194]",EC50,[1],66.5 nM
same,IC50,[2],66.5 nM
"Ac-[αAllylPro]D[tBuAla][B5(4)]DDAA[Ala(4-thiazolyl)]N[PyrS2″][3Thi][Bta]Q-NH2 (staple 1-4, 4-11) [I-812]",IC50,[8],33 nM
same,EC50,[9],33 nM
"Ac-[αAllylPro]D[tBuAla][B5(5)]D[Phe(3-COOH)]AAFL[PyrS2][Phe(2-CF3)][Bta]QL[Nle]-NH2 (staple 1-4, 4-11) [I-2391]",IC50,[3],110 nM
same,DLD1 4% Abs IC50,[4],700 nM
same,IC50,[5],8200 nM
"Ac-[αAllylPro]D[tBuAla][B5(5)]D[Phe(3-COOH)]AAFL[PyrS2][Phe(2-CF3)][Bta]QLR-NH2 (staple 1-4, 4-11) [I-2393]",IC50,[3],61 nM
same,DLD1 4% Abs IC50,[4],5600 nM
same,IC50,[5],> 20000 nM
